The results in this text go back to patent US5834290.

The target in this assay is stratum corneum chymotryptic enzyme (SCCE), native, from human plantar stratum corneum (human).

Regarding “soybean trypsin inhibitor (SBTI) (from UniProt P01070)”, the hydrolysis of S-2586 by the proteinase associated with plantar stratum corneum cells, Activity (%) worked out at 6 % activity.
